According to patent publication US6110695A, “Modulating the interaction of the chemokine, B Lymphocyte Hemoattractant, and its Receptor, BLR1” (The Regents of the University of California, priority 1997, dated 2000):

How the values were obtained:
B cells = test: Transwell chemotaxis of spleen B cells; type: cell-based, mouse
Description: (§1) FIGS. 1(a)-(g). Chemotactic activity of BLC on leukocyte subtypes. Results are expressed as the percentage of input cells of each subtype migrating to the lower chamber of a Transwell filter. FIG. 1a show migration of B cells; FIG. 1b, CD4+T cells; FIG. 1c, CD8+T cells; FIG. 1d; granulocytes; and FIG. 1e, monocytes/macrophages to BLC. Positive controls are SDF1a (FIGS. 1a, b, c, e) and IL8 (FIG. 1d). […] BLC was added to the upper or lower chamber of the apparatus as indicated. […] Data points with error bars represent the mean 1 s.d. for triplicates; individual data points are shown for duplicates. Each experiment was performed a minimum of two times.
(§2) To test this possibility, chemotaxis assays were performed with lymphocytes from mouse spleen and baculovirus-expressed BLC estimated to bc greater than 95% pure by silver staining. […] An alternative possibility is that high potency is not rcquired for a chemokine that is expressed constitutively within lymphoid tissues.
(§3) Chemotaxis. Lymphocytes and macrophages were obtained from spleens of C57BL/6 mice. For macrophage chemotaxis, B cells were depleted by passage over a MACS column (Milteny Biotec, Auburn, Calif.) after incubation with biotinylated anti-B220 antibodies and streptavidin-coated magnetic beads. Granulocytes were obtained from mouse bone marrow suspensions. Mouse BLR1 transfected Jurkat cells were obtained by transfection with pREP4 containing the mouse BLR1 coding region (16), isolated by RT-PCR from mouse spleen RNA, and an amino terminal prolactin leader sequence and FLAG epitope (23). Positive clones were identified using the anti-FLAG antibody M1 (Kodak). Chemotaxis assays were performed as previously described (15) and subsets of migrating cells were identified by flow cytometry using antibodies specific for B220, CD4, CD8 (Pharmingen, San Diego, Calif.) and Mac-1 (Caltag, South San Francisco, Calif.). Granulocytes were identified by their characteristic large side scatter profile. In some experiments, cells were preincubated with 100 ng/ml pertussis toxin (List Biol. Labs, Campbell, Calif.) for 2 hrs at 37° C. IL-8 (R&D Systems, Minneapolis, Minn.) and synthetic human SDF1 a (N33A) synthesized by native chemical ligation (Gryphon Sciences, South San Francisco) were used as positive controls. SDF1a (N33A) has identical activity to native human and mouse SDF1a (24, 25).

CD4 and CD8 T cells = test: Transwell chemotaxis of spleen CD4 and CD8 T cells; type: cell-based; conditions: mouse spleen lymphocytes, FIG. 1b, c
Description: as §1, §2
(§4) Chemotaxis. Lymphocytes and macrophages were obtained from spleens of C57BL/6 mice. For macrophage chemotaxis, B cells were depleted by passage over a MACS column (Milteny Biotec, Auburn, Calif.) after incubation with biotinylated anti-B220 antibodies and streptavidin-coated magnetic beads. Granulocytes were obtained from mouse bone marrow suspensions. […]

CXCR2 = test: Calcium flux in 293 cells transfected with CXCR2; type: cell-based; conditions: 293 cells transfected with CXCR2, FIG. 2d
Text: (§5) FIG. 2(a)-(f). BLR1-mediated calcium mobilization and chemotaxis in response to BLC. HEK 293 cells, stably transfected with the indicated chemokine receptors (FIGS. 2a-d), were loaded with the calcium probe Indo-1 and assayed by spectrofluorimetry for changes in intracellular calcium in response to BLC. FIG. 2a, Calcium flux as a function of BLC concentration (nM). FIG. 2b, Specificity of the response of BLR1 to BLC. FIG. 2c, Lack of response to BLC in CCR1-transfected cells. FIG. 2d, Lack of response to BLC in CXCR2-transfected cells. FIG. 2e, Percentage of maximal calcium flux as a function of BLC concentration in BLR1-transfected 300-19 cells. FIG. 2f, Chemotactic response of BLR1-transfected Jurkat cells to BLC. Results of chemotaxis are expressed as in FIG. 1.
(§6) We therefore tested whether BLC could signal through BLR1. […] Using BLR1 transfected 300-19 pre-B cells a more complete dose response curve was obtained showing that the response to BLC is saturable (FIG. 2e). […] We next tested the ability of BLC to stimulate chemotaxis through BLR1.
(§7) Calcium fluorimetry on transfected 293 and 300-19 cells. Native mouse BLR1 was subcloned into pBK-CMV (Stratagene) and used to transfect HEK 293 cells and 300-19 pre-B cells. […] Intracellular calcium concentrations were calculated using the Hitachi 4500 Intracellular Cation Measurement program.

BLR1 [1] = test: Chemotaxis of BLR1 transfected Jurkat T cells; type: cell-based, mouse; conditions: Jurkat T cells transfected with BLR1
Text: as §5, §6, §4

BLR1- negative cells = test: Chemotaxis of BLR1-negative Jurkat cells; type: cell-based
Description: as §6
as §3, with “In some experiments, cells were preincubated with 100 ng/ml pertussis toxin (List Biol. Labs, Campbell, Calif.) for 2 hrs at 37° C. IL-8 (R&D Systems, Minneapolis, Minn.) and synthetic human SDF1 a (N33A) synthesized by native chemical ligation (Gryphon Sciences, South San Francisco) were used as positive controls. SDF1a (N33A) has identical activity to native human and mouse SDF1a (24, 25).” left out

CCR1 = test: Calcium flux in 293 cells transfected with CCR1; type: cell-based; conditions: 293 cells transfected with CCR1, FIG. 2c
Text: as §5, §6, §7

[2] = test system: spleen monocytes/macrophages; test: Transwell chemotaxis of spleen monocytes/macrophages; type: cell-based, mouse; conditions: FIG. 1e
Description: as §1, §2, §4

CCR2 = test: Calcium flux in 293 cells transfected with CCR2; type: cell-based
Description: as §6
(§8) Calcium fluorimetry on transfected 293 and 300-19 cells. Native mouse BLR1 was subcloned into pBK-CMV (Stratagene) and used to transfect HEK 293 cells and 300-19 pre-B cells. G418-resistant clones were tested for BLR1 expression using an affinity purified rabbit anti-mouse antiserum that is specific for the BLR1 amino terminus. HEK293 cells expressing CCR1, CCR2 and CXCR2 were from the Cardiovascular Research Institute, UCSF. Ca2+-mobilization studies were performed as described (26) using a Hitachi 4500 spectrometer. Intracellular calcium concentrations were calculated using the Hitachi 4500 Intracellular Cation Measurement program.

BLR1 [3] = test: Calcium flux in BLR1 transfected 300-19 pre-B cells; type: cell-based, mouse; conditions: FIG. 2e
Text: as §5, §6, §7

mouse BLR1 = test: Calcium flux in HEK 293 cells stably transfected with mouse BLR1; type: cell-based; conditions: HEK 293 cells stably transfected with mouse BLR1, FIG. 2a, b
Text: as §5, §6, §7

granulocytes = test: Transwell chemotaxis of bone marrow granulocytes; type: cell-based, mouse; conditions: FIG. 1d
Description: as §1, §2, §4

Control transfectants = test: Calcium flux in control transfectants of 293 and 300-19 cells; type: cell-based; conditions: control transfectants of either cell line (293, 300-19)
Description: as §6, §8

Molecule | BLC-induced migration of pertussis toxin pretreated B cells (B cells; preincubated with 100 ng/ml pertussis toxin for 2 hrs at 37° C., FIG. 1g) | chemotactic activity towards CD4 and CD8 T cells (CD4 and CD8 T cells) | calcium flux (CXCR2) | chemotactic response (BLR1 [1]) | chemotactic response (BLR1- negative cells) | calcium flux (CCR1) | chemotactic activity for spleen monocytes/macrophages [2] | calcium flux (CCR2) | calcium flux dose response (BLR1 [3]) | calcium flux (mouse BLR1) | chemotactic activity towards granulocytes (granulocytes) | potency as a B cell attractant (B cells; baculovirus expressed protein, compared with most chemokines) | migration of cells in the absence of a gradient (B cells; cells incubated with BLC in the absence of a gradient, FIG. 1f) | chemotactic response in B cells (B cells; mouse spleen lymphocytes, FIG. 1a) | calcium flux response (Control transfectants)
pertussis toxin [reference compound] | failed to migrate | – | – | – | – | – | – | – | – | – | – | – | – | – | –
BLC: novel CXC chemokine; baculovirus-expressed mouse BLC (SEQ ID NO:2), mature protein starting at isoleucine 22 (protein) MRLSTATLLLLLASCLSPGHGILEAHYTNLKCRCSGVISTVVGLNIIDRIQVTPPGNGCPKTEVVIWTKMKKVICVNPRAKWLQRLLRHVQSKSLSSTPQAPVSKRRAA | – | limited activity | failed to stimulate a calcium flux | showed a chemotactic response | failed to respond | failed to stimulate a calcium flux | weak but reproducible chemotactic activity | failed to stimulate a calcium flux | saturable | dose dependent calcium flux | no chemotactic activity | potency less than that of most chemokines | failed to migrate | strong chemotactic response | did not respond
